Source: the RNAGym collection of RNA variant scans (doi:10.1073/pnas.2313332121)
Variants at the floor of the assay were thinned out.

B1: TPR 5TU (parent)
chain: GGAUCUUCUCGAUCUAACAAAAAAGACAAAUCUGCCACAAAGCUUGAGAGCAUCUUCGGAUGCAGAGGCGGCAGCCUUCGGUGGCGCGAUAGCGCCAACGUUCUCAACUAUGACACGCAAAACGCGUGCUCCGUUGAAUGGAGUUUAUCAUG

Variants of: B1
Test: polymerase ribozyme fitness, log enrichment relative to wild type (log ratio); higher = more active; in vitro selection for triplet polymerase activity
Procedure, shortened: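 Mutant libraries of both subunits of a heterodimeric triplet polymerase ribozyme were PCR-built, transcribed, and selected once in triplicate, with frozen incubation at −7 °C and capture of gel-excised extended constructs on streptavidin beads before RT-PCR. Illumina sequencing of input and output libraries was filtered to genotypes with ≥10 input reads and ≥1 read per output. Fitness is the logarithm of genotype enrichment over wild-type enrichment, using inverse-variance-weighted replicate averages. The logarithm is base 2.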

| Variant | polymerase ribozyme fitness (log ratio) |
| --- | --- |
| G11U G68U A120U C125U | ≤ -4.2 |
| A19C A28C A73G C87U | ≤ -4.2 |
| A17U G84U | -1.75 |
| C18U A40C A52G G86U U90C U135G | ≤ -4.2 |
| U90A | -4.07 |
| A37C C38U U145C | 0.0837 |
| G46A G50C U56A G83U A147C | ≤ -4.2 |
| A29C A49U A91U C118G C149A | ≤ -4.2 |
| A28G G94A | -3.42 |
| A3G A20C A29U A41G C54U C87U C95U U135G | ≤ -4.2 |
| A23G G48U G65C C72U G81C G83U | ≤ -4.2 |
| A21C U44A C75A C96A | -3.98 |
| A49U C54G U55A G59A A60G U90G A106U G124C | ≤ -4.2 |
| G25U U61G | -2.3 |
| U53A C75G C76U U82A C95U G128A | ≤ -4.2 |
| G81U G94C U144A | -0.944 |
| U13C G94C | -0.0586 |
| G70U G80U A119G | ≤ -4.2 |
| A24U G34U G42A U55G A91C G94A | -3.62 |
| C14G A137U | ≤ -4.2 |
| C72U C93G A106G A121U | -2.98 |
| G48U C93G | -3.47 |
| G48C G84A A121G U134A G143A | -3.91 |
| A49C G68C G94U A97U C114G G126A U127G | ≤ -4.2 |

| Variant | polymerase ribozyme fitness (log ratio) |
| --- | --- |
| G86U G141A U146C | -1.62 |
| A23U U31C C87G U104G | ≤ -4.2 |
| A17U A19G A30G C38G U45A G88U | ≤ -4.2 |
| C85A C149U | -1.59 |
| U15C A22G A47C U55A G88C U139C | ≤ -4.2 |
| C5G C38U G50A | -1.8 |
| G59C U61A | -1.51 |
| G83U C99G U145G | ≤ -4.2 |
| A19G G83A A91C G94C C96G U134G | ≤ -4.2 |
| A49U C69G C75A U90G | ≤ -4.2 |
| A30G A40G U45G C79G A89C G94U U145A | ≤ -4.2 |
| A26U G94C | -2.1 |
| A52G G84A | -1.03 |
| C38U A60C C85U C118U G136A | -0.726 |
| G59A C118G U130A C132G G140A | ≤ -4.2 |
| A29U G133C | ≤ -4.2 |
| U6G G46A U56C C76G G81C A91C A106G A137U U144C U151A | ≤ -4.2 |
| A17C C125G G126A | -3.65 |
| G34U U82G C96G A106G U145C | -3.75 |
| A89C C125A | -1.13 |
| U7C C18U U31A G81A G84U | -3.99 |
| A49C C57U | -3.72 |
| A22U G46A C79G G80U G92A A150C | ≤ -4.2 |
| C54U U56A C118U | -0.674 |

| Variant | polymerase ribozyme fitness (log ratio) |
| --- | --- |
| A20U A23G G88A C99G C149G | ≤ -4.2 |
| U6G G86C U135G | ≤ -4.2 |
| A19C C35U C95U | 0.438 |
| A40G A73U A89G C93G U104G A106G U134A | ≤ -4.2 |
| U15A A20C G59A A60U C93G C105U G133U | ≤ -4.2 |
| A89U U109G | -0.917 |
| C27G A40U G58A A73C C76U C95G | ≤ -4.2 |
| C54U C76A | -0.561 |
| A3G A60C C93U U145G | -2.53 |
| G80U C125A | -1.04 |
| A28C G34A C38G C72U C76A C96G U151A | ≤ -4.2 |
| A16C A113U C118G | -3.27 |
| U6C C32A A49U G70U U82G C87U C105G | ≤ -4.2 |
| U15G G71U | -2.28 |
| C54U A64C U90G U139G G140A | ≤ -4.2 |
| A98G G124C | -0.819 |
| G67U U102G | ≤ -4.2 |
| A49U A60C | -3.47 |
| A28U A40C C75G C87A C95U C105G A121U | ≤ -4.2 |
| G58U U82A G84U | -0.648 |
| U53C G84A C95U | -0.536 |
| C95U A142C | -1.54 |
| C14A C75U | -1.84 |
| A20U A30U A37U C51G C93U C95A C96G C116G | ≤ -4.2 |

| Variant | polymerase ribozyme fitness (log ratio) |
| --- | --- |
| C85A C96U C132A | -3.67 |
| U44G G48A G84A | ≤ -4.2 |
| U56A G58C G92A A106G | -3.51 |
| C51U G94A C118U | -1.44 |
| A41C A97G A121G | -0.295 |
| C38U C63A C85U | 0.65 |
| C95G A97C | -0.47 |
| G58C A66C C87G U139A | ≤ -4.2 |
| G11A U15G A107G G141C U144C U145A G152A | ≤ -4.2 |
| U56A G92A | -2.28 |
| U55A G58U G83C G124C C132G | ≤ -4.2 |
| C14U C87U C99U U101G A137C U145G | ≤ -4.2 |
| G58C U134G | -3.93 |
| G81A C105U | 1.52 |
| C57A U135C | -1.62 |
| C27U U31G U55G G94C A113C | ≤ -4.2 |
| U7G A12G A52U C57A A73G C93G | ≤ -4.2 |
| U44A G88A A120U | ≤ -4.2 |
| C85U A115G | -2.3 |
| C10U U13G C35U G50U G59C A60U C85A G94C G141A | ≤ -4.2 |
| C5A C27U C75A A142G U146G | ≤ -4.2 |
| U61A C69A C85A U139A C149G | ≤ -4.2 |
| A3C C5U C43U G70C G84A A106U A113C | ≤ -4.2 |
| A30G C57A | -2.9 |

| Variant | polymerase ribozyme fitness (log ratio) |
| --- | --- |
| U56A U61A C96U U101A | -1.95 |
| C5U A52C C76U C93A C116U C123G | -3.61 |
| A40G U90G C95A G112C U127C | ≤ -4.2 |
| C96U C131G | -2.66 |
| U4C C95U A122U | -0.317 |
| G48C A115G G133A | -3.85 |
| A3U C32G A49U | ≤ -4.2 |
| C93G C116U | -3.07 |
| G84A U148A | -2.74 |
| U13C U53A A91U A107U | ≤ -4.2 |
| C18U C38U U55C A97U A120C | -1.43 |
| G11C U31C G59C C76A G84U U104A A107U | ≤ -4.2 |
| G74C U90C A91C U104G U130A | ≤ -4.2 |
| C85G G94A C95G U135A | -3.95 |
| C93A A138G G143C | -3.66 |
| C96U A107C | -3.14 |
| C69U G70C C93G C114A A150C | ≤ -4.2 |
| A52G C105A C123A G133U U144G | ≤ -4.2 |
| A47U U77C C85A C93G A107U | ≤ -4.2 |
| G42A C54G U82C G94U | ≤ -4.2 |
| U56A G67C C93U C103A U130A U148C | ≤ -4.2 |
| A19U U31A G58C C63U G70C C95U C131G G152U | ≤ -4.2 |
| C14A G80C G86U C118U | ≤ -4.2 |
| A47G U56A U90C G92U U139C | ≤ -4.2 |

| Variant | polymerase ribozyme fitness (log ratio) |
| --- | --- |
| G42U U56A C75G A91U G126A U144A | ≤ -4.2 |
| A16G A24U G46U C85G A106C U109A C114U C118G A120G | ≤ -4.2 |
| C57G C85U | -1.28 |
| C32U A40C C85G C103A | ≤ -4.2 |
| U9G C87U | -4.11 |
| U6G A26G A29C A47U C63U G84A G136U G143C U151A | ≤ -4.2 |
| A66G G100C A107C C114U A122C G133C | ≤ -4.2 |
| U15G C27U G83A A121C | -2.52 |
| A28C G58U A113G A119U | ≤ -4.2 |
| U90A G92C A142G | ≤ -4.2 |
| G86A C103G U134A | ≤ -4.2 |
| G62A C93G U130C | -3.01 |
| U4C A22U A73U C96G A120G | -2.21 |
| A22U C32A C36A C57U C96G C116U U139G | ≤ -4.2 |
| U33G A37U A60C C75U G94U C108U | ≤ -4.2 |
| A17G A20C A30G G46A G59U G67C G68U G70U C96G | ≤ -4.2 |
| U53A U55A G62C | -2.35 |
| C27U C95U | -2.39 |
| A37G C38A G48U | -2.25 |
| G42C U45G U146C | ≤ -4.2 |
| A19G C85A | -2.09 |
| G11C C14U A37C C93U | ≤ -4.2 |
| C18G G71C C76A G88A G94A A113G A119U C129U | ≤ -4.2 |
| A3C U6A | -0.461 |

| Variant | polymerase ribozyme fitness (log ratio) |
| --- | --- |
| U53G A110G G117A U148A | ≤ -4.2 |
| G46U C57G G70C U78G C87U G88U G143A U144A | ≤ -4.2 |
| U44A G62U G80C G140C | ≤ -4.2 |
| A12G C57U U61A G68A G70C C87U C96A G133A U148A | ≤ -4.2 |
| C76U U135C | -2.53 |
| U33G A113C | -4.01 |
| A39C C85A C118A | -3.96 |
| U53G A119C A122C G141U | -0.69 |
| A121U C125U G143C U146C | -3.38 |
| A52U U144G A147C | -0.409 |
| U151G | -3.49 |
| G81A C87U G100U A115U C116U | -4.04 |
| A115G G124A A150G | -4 |
| A64G C93G | -4.05 |
| C93U U144C | -1.07 |
| A39C C85U C149U | -2.98 |
| U53A C96U | -1.85 |
| C54U C87U G92C | -0.365 |
| G50U G67U C85G C103U G140A A147G | ≤ -4.2 |
| A17C C32U | -1.61 |
| A23G A41C U90G A110G | ≤ -4.2 |
| G42C C43G U56A G59U C85U C125A U127C | ≤ -4.2 |
| A21C U33A G50A G62A U90C C95A | ≤ -4.2 |
